“Also recorded” adds a separate entry of the source.
Columns and labels:
[1] = Dynamic light scattering of nanoparticles; type: physicochemical; details: Malvern Zetasizer Nano S; for Size (Mean Z average): hydrodynamic diameter
Description: Lipid-peptide conjugates were synthesized from either DSPE-PEG-CO2H or DSPE-PEG-MAL using peptides derived using SVM prediction platform and listed in Supplementary Table S2. The peptides were conjugated to either the N-terminus or via sulfhydryl groups as depicted in Figure 1E. Lipid films from both PEGylated derivatives were prepared by evaporation under nitrogen gas, from 1 µM of lipid solution in chloroform. Tetrapeptides were custom-synthesized by Genscript. 5 µmol of peptide solutions in water:dimethylformamide (1:1) were prepared via a brief bath sonication. […] PEGylated lipids prepared above were sonicated (10 min, 300 W, room temperature) in 5 mL of MES (pH 6, 100 mM) for DSPE-PEG-CO2H and in 5 mL of HEPES buffered saline [HBS] (pH 7.2, 100 mM, 154 mM NaCl) for DSPE-PEG-MAL. Next, DSPE-PEG-CO2H was activated by the addition of 2 mg of EDC (20 mg/mL in water) and 5 mg of sulfo-NHS (10 mg/mL in water). This was sonicated at 15 W for 10 min in a temperature controlled bath at 30 °C. Then, peptide solutions/suspensions were added to the resulting DSPE-PEG-NHS or previously prepared DSPE-PEG-MAL and stirred at room temperature for 4 h. The reaction with DSPE-PEG-NHS was quenched by the addition of 100 µL of 0.5 M of NH2OH in HBS, plus 1 mM EDTA. The reaction with DSPE-PEG-MAL was quenched by the addition of 7 µL of 2-mercaptoethanol. The solution was freezed at -80 °C and lyophilized. Next, lipid-peptide conjugates were extracted with chloroform (3 x 2 mL) and centrifuged at 4000 g x 5 min. Combined extract supernatants were evaporated under N2 gas and sonicated (10 min, 100 W) in 0.5-1 mL of water at room temperature. This raw product was purified by size […] chromatography as follows. Millipore Vantage column (10 x 500 mm) was packed with Sepharose 4B in deionized water under flow rate of 0.5 mL/min. Next, 0.5 mL of raw nanoparticle preparation was injected into the column and 0.5 mL fractions were collected at 0.5 mL/min simultaneously with UV detection at 190, 214, 250 and 280 nm using the Bio Rad DuoFlow system equipped with BioLogic QuadTec UV/Vis detector. See Supplementary Figure S2 for representative chromatograms. Combined fractions 15-31 were frozen and lyophilized. Particles used in signalling In vitro work were prepared by reconstitution of lyophilizates in PBS or HBS buffer via sonication. Particles used in reporter, flow cytometry and microscopy experiments were prepared by addition of 1% (by weight) of Rhodamine-PE in ethanol followed by reconstitution as described above. Particles used in magnetic resonance imaging (MRI) and time-resolved fluorescence (TRF) assays were prepared by addition of 10-20% (by weight) of gadolinium or europium chelate-lipids followed by reconstitution as above. Gadolinium-DTPA (18:0 PE-DTPA) was obtained from Avanti Polar Lipids and europium cryptate-NHS was obtained from Aat Bioquest (Supplementary Table S1). Europium cryptate-NHS was further conjugated to phosphatidylethanolamine (PE) to obtain Eu-cryptate-PE according to published and well established protocols. To confirm peptide conjugation, the powder was reconstituted in 1 mL of chloroform and analyzed with TLC (eluent chloroform:methanol:water 65:25:4) detecting with Molybdenum blue (Supplementary Figure S3A) or Dragendorff reagent (Supplementary Figure S3B). Nanoparticles were characterized by dynamic light scattering using Malvern Zetasizer Nano S (Supplementary Table S3). The presence of the peptide bond (N-H) and aliphatic C-H and C-C stretches (lipids) was confirmed by infrared (IR) spectroscopy. Nanoparticles were isolated as a homogeneous population (peak) in gel-filtration (see above) and were used without additional purification.

[2] = test system: caspase 3 and heme oxygenase (HO-1) proteins in RAW cells; assay: Immunoblot of active caspase 3 and HO-1; type: cell-based, mouse; details: 1 µM nanoparticles, 3 h
Description: Immunoblotting was performed as previously described with the following modifications. Briefly, cell lysates were obtained in SDS lysis buffer consisting of 2% SDS, 50 mM Tris-HCl (pH 6.8), 100 mM DTT, 5% Ficoll 400, 0.0001% bromophenol blue and a cocktail of protease inhibitors. Lysates were sonicated on ice before heating at 97 °C for 7 min to completely denature the protein. Protein concentration was determined using IR spectroscopy (which is insensitive to high SDS and DTT concentrations) with a Millipore DirectDetect spectrometer. Lysates were equally loaded at 10-15 µg per lane on BioRad TGX Criterion gels (4-15%) and resolved at 300 V in Tris-Glycine running buffer. Proteins were transferred on nitrocellulose membranes using the BioRad TransBlot turbo according to the manufacturer's instructions. Membranes were blocked in fish serum (Aqua Block) or 5% nonfat dry milk in TBS-T (0.05% Tween 20) and probed overnight at 4 °C with primary antibodies as indicated in Supplementary Table S1. The membranes were washed in TBS-T and incubated with secondary antibodies for 1 h at room temperature. After washing, semi-quantitative visualization of the proteins of interest was enabled using an enhanced chemiluminescence reagent as previously described and the Azure C400 western blot imaging system.
N-acetylcysteine (NAC) served as an antioxidant control. β-Actin was used as a loading control. B) Gene expression analysis in RAW cells treated with 1 µM of vehicle, CCTV and VTCC (peptide nanoparticle control) for 24 h. mRNA expression of mannose receptor (Mrc1), nitric oxide synthase 2 (Nos2), tumor necrosis factor (Tnf), interleukin-1beta (Il1b), and interleukin-6 (Il6) were analyzed. C) Cytokines in cell culture supernatants were analyzed as indicated. D) Schematic representation of transcriptional activation of primary and secondary inflammatory response to lipopolysaccharide (LPS). E) Immunoblot analysis of dose-dependent suppression of IL-1β and HO-1 production by CCTV with and without stimulation by 100 ng/mL LPS for 16 h in bone marrow derived macrophages (BMDMs). GAPDH served as a loading control. F) Chemotaxis assays in bone marrow derived monocytes treated with 5 µM vehicle, CCTV, VTCC or left untreated. Chemotaxis was stimulated by introducing a gradient of recombinant mouse CCL2. Forty (out of 150-300) cell migration tracks are presented for simplicity. Metrics of chemotactic behaviour i.e. velocity, distance travelled, and chemotactic index were quantified as presented in bar graphs. G) BMDMs were pre-treated for 6 h with 5 µM CCTV or VTCC followed by 500 nM CCL2 for the indicated times. […] P values are calculated by t-test and error bars are standard errors of three independent experiments.

BMDMs = assay: GSH/GSSG assay in LPS-primed BMDMs; type: cell-based, mouse; details: LPS-primed (100 ng/mL) BMDMs, 5 µM CCTV vs vehicle, 8 experiments
Description: GSH /GSSG, lactate dehydrogenase (LDH) and DCFDA assays were performed according to the manufacturer's instructions.

[3] = test system: interleukin-1 beta (IL-1β); details: CANTOS clinical trial, cited from earlier work
Description: Inflammation is a process of immune system activation that is often accompanied by increased migration of immune cells to a site of injury or disease. Inflammation-driven immune cell migration is orchestrated via chemokine receptor-ligand pairs that are ubiquitously expressed in innate immune cells and are hyperactivated in many pathologies.

KISV [A4, KISV peptide-lipid conjugate nanoparticle, N-terminus conjugation]
Mean Polydispersity Index (PDI) [1]: 0.09
Size (Mean Z average) [1]: 114 nm

LLIA [A3, LLIA peptide-lipid conjugate nanoparticle, N-terminus conjugation]
Mean Polydispersity Index (PDI) [1]: 0.162
Size (Mean Z average) [1]: 134 nm

VTCC [A5]
Mean Polydispersity Index (PDI) [1]: 0.141
Size (Mean Z average) [1]: 76 nm
active (cleaved at Asp175, p19/17) caspase 3 ([2]; listed as N-term VTCC): upregulation
heme oxygenase-1 (HO-1) levels ([2]; listed as N-term VTCC): upregulation
apoptosis and cell death (RAW cells): significant apoptosis and cell death

CC(=O)N[C@@H](CS)C(=O)O [NAC, N-Acetyl-L-cysteine, reference compound]
GSH levels (BMDMs): In contrast to classic antioxidant NAC, CCTV was unable to restore GSH levels
GSSG levels (BMDMs): In contrast to classic antioxidant NAC, CCTV was unable to restore GSH levels or reduce GSSG

HLDK [B3, HLDK peptide-lipid conjugate nanoparticle, N-terminus conjugation]
Mean Polydispersity Index (PDI) [1]: 0.257
Size (Mean Z average) [1]: 61 nm

KVSA [A2, KVSA peptide-lipid conjugate nanoparticle, N-terminus conjugation]
Mean Polydispersity Index (PDI) [1]: 0.124
Size (Mean Z average) [1]: 110 nm

RLAS [A1, RLAS peptide-lipid conjugate nanoparticle, N-terminus conjugation]
Mean Polydispersity Index (PDI) [1]: 0.198
Size (Mean Z average) [1]: 93 nm

canakinumab: interleukin-1 beta (IL-1β) neutralizing monoclonal antibody
cardiovascular events ([3]; cardiovascular disease): a reduction in cardiovascular events
risk of death from infection and sepsis [3]: significantly increased risk of death from infection and sepsis

IVAK [B2, IVAK peptide-lipid conjugate nanoparticle, N-terminus conjugation]
Mean Polydispersity Index (PDI) [1]: 0.058
Size (Mean Z average) [1]: 53 nm

ALLC [C4, ALLC peptide-lipid conjugate nanoparticle, SH conjugation]
Mean Polydispersity Index (PDI) [1]: 0.002
Size (Mean Z average) [1]: 79 nm

CCTV [N-term CCTV]
active (cleaved at Asp175, p19/17) caspase 3 [2]: upregulation; also recorded: significant apoptosis-associated caspase-3 activity
heme oxygenase-1 (HO-1) levels [2]: upregulation; also recorded: increased
apoptosis and cell death (RAW cells): significant apoptosis and cell death

MDHL [C2, MDHL peptide-lipid conjugate nanoparticle, N-terminus conjugation]
Mean Polydispersity Index (PDI) [1]: 0.111
Size (Mean Z average) [1]: 134 nm

ALLC [B4, ALLC peptide-lipid conjugate nanoparticle, N-terminus conjugation]
Mean Polydispersity Index (PDI) [1]: 0.151
Size (Mean Z average) [1]: 86 nm

MKVS [C1, MKVS peptide-lipid conjugate nanoparticle, N-terminus conjugation]
Mean Polydispersity Index (PDI) [1]: 0.159
Size (Mean Z average) [1]: 189 nm

DKQT [B1, DKQT peptide-lipid conjugate nanoparticle, N-terminus conjugation]
Mean Polydispersity Index (PDI) [1]: 0.176
Size (Mean Z average) [1]: 204 nm

QDSM [B5, QDSM peptide-lipid conjugate nanoparticle, N-terminus conjugation]
Mean Polydispersity Index (PDI) [1]: 0.169
Size (Mean Z average) [1]: 198 nm

LLLI [B6, LLLI peptide-lipid conjugate nanoparticle, N-terminus conjugation]
Mean Polydispersity Index (PDI) [1]: 0.152
Size (Mean Z average) [1]: 223 nm

KTIV [A6, KTIV peptide-lipid conjugate nanoparticle, N-terminus conjugation]
Mean Polydispersity Index (PDI) [1]: 0.054
Size (Mean Z average) [1]: 142 nm

From article PMC6838142, “Nano-Antagonist Alleviates Inflammation and Allows for MRI of Atherosclerosis” (Nanotheranostics, 2019)
